Columns and labels:
[1] = target: T1, canine FcRn complex (FcRn-α subunit and β-microglobulin) (canine, UniProt A0A8I3PFR8 25-347, biotin labeled through BirA enzymatic reaction in Example 5); experiment: SPR (Biacore), FcRn amine-coupled on CM5, IgG as analyte, pH 6, 15 C
[2] = target: T1, canine FcRn complex (FcRn-α subunit and …); experiment: SPR (Biacore), FcRn amine-coupled on CM5, IgG as analyte, pH 7.2, 15 C

T1 sequence (A0A8I3PFR8 entry or part of it, one chain of several): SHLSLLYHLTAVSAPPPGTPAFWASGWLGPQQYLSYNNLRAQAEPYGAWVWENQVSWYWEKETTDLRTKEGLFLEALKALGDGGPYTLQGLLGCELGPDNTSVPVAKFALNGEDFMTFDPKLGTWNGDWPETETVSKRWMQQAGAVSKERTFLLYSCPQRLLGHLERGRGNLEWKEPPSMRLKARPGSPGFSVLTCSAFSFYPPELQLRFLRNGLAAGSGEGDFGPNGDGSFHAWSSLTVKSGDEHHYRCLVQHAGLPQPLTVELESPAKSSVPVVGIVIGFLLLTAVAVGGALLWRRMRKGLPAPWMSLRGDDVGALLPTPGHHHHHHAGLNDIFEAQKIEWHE

Row | Binder | Kd [1] [nM] | Kd [2] [nM]
1 | anti-TGFβ antibody ZTS-4155, canine IgGB (65), N434H (antibody, See m9; also called mAb3 N434H) heavy: EVQLVQSGAEVKKPGASVKVSCKTSGYTFITYWMNWVRQAPGAGLDWMGQIFPASGSTNYNEMFEGRVTLTADTSTSTAYMELSSLRAGDIAVYYCARGDGNYALDAMDYWGQGTLVTASTTAPSVFPLAPSCGSTSGSTVALACLVSGYFPEPVTVSWNSGSLTSGVHTFPSVLQSSGLYSLSSMVTVPSSRWPSETFTCNVAHPASKTKVDKPVPKRENGRVPRPPDCPKCPAPEMLGGPSVFIFPPKPKDTLLIARTPEVTCVVVDLDPEDPEVQISWFVDGKQMQTAKTQPREEQFNGTYRVVSVLPIGHQDWLKGKQFTCKVNNKALPSPIERTISKARGQAHQPSVYVLPPSREELSKNTVSLTCLIKDFFPPDIDVEWQSNGQQEPESKYRTTPPQLDEDGSYFLYSKLSVDKSRWQRGDTFICAVMHEALHHHYTQESLSHSPGK VL: DIVMTQTPPSLSVSPRETASISCRASESVDSYGNSFMHWYLQKPGQSPQLLIYLASNLESGVSDRFSGSGSGTDFTLRISRVEANDTGVYYCQQNNEDPLTFGQ | 4.8 | 38
2 | anti-TGFβ antibody ZTS-4155, canine IgGB (65), N434M (antibody) chain 1: EVQLVQSGAEVKKPGASVKVSCKTSGYTFITYWMNWVRQAPGAGLDWMGQIFPASGSTNYNEMFEGRVTLTADTSTSTAYMELSSLRAGDIAVYYCARGDGNYALDAMDYWGQGTLVTVSSASTTAPSVFPLAPSCGSTSGSTVALACLVSGYFPEPVTVSWNSGSLTSGVHTFPSVLQSSGLYSLSSMVTVPSSRWPSETFTCNVAHPASKTKVDKPVPKRENGRVPRPPDCPKCPAPEMLGGPSVFIFPPKPKDTLLIARTPEVTCVVVDLDPEDPEVQISWFVDGKQMQTAKTQPREEQFNGTYRVVSVLPIGHQDWLKGKQFTCKVNNKALPSPIERTISKARGQAHQPSVYVLPPSREELSKNTVSLTCLIKDFFPPDIDVEWQSNGQQEPESKYRTTPPQLDEDGSYFLYSKLSVDKSRWQRGDTFICAVMHEALHMHYTQESLSHSPGK chain 2: DIVMTQTPPSLSVSPRETASISCRASESVDSYGNSFMHWYLQKPGQSPQLLIYLASNLESGVSDRFSGSGSGTDFTLRISRVEANDTGVYYCQQNNEDPLTFGQGTKLEIKRNDAQPAVYLFQPSPDQLHTGSASVVCLLNSFYPKDINVKWKVDGVIQDTGIQESVTEQDKDSTYSLSSTLTMSSTEYLSHELYSCEITHKSLPSTLIKSFQRSEC | 18.8 | 11
3 | anti-TGFβ antibody ZTS-4155, canine IgGB (65), N434Q (antibody) chain 1: EVQLVQSGAEVKKPGASVKVSCKTSGYTFITYWMNWVRQAPGAGLDWMGQIFPASGSTNYNEMFEGRVTLTADTSTSTAYMELSSLRAGDIAVYYCARGDGNYALDAMDYWGQGTLVTVSSASTTAPSVFPLAPSCGSTSGSTVALACLVSGYFPEPVTVSWNSGSLTSGVHTFPSVLQSSGLYSLSSMVTVPSSRWPSETFTCNVAHPASKTKVDKPVPKRENGRVPRPPDCPKCPAPEMLGGPSVFIFPPKPKDTLLIARTPEVTCVVVDLDPEDPEVQISWFVDGKQMQTAKTQPREEQFNGTYRVVSVLPIGHQDWLKGKQFTCKVNNKALPSPIERTISKARGQAHQPSVYVLPPSREELSKNTVSLTCLIKDFFPPDIDVEWQSNGQQEPESKYRTTPPQLDEDGSYFLYSKLSVDKSRWQRGDTFICAVMHEALHQHYTQESLSHSPGK chain 2: DIVMTQTPPSLSVSPRETASISCRASESVDSYGNSFMHWYLQKPGQSPQLLIYLASNLESGVSDRFSGSGSGTDFTLRISRVEANDTGVYYCQQNNEDPLTFGQGTKLEIKRNDAQPAVYLFQPSPDQLHTGSASVVCLLNSFYPKDINVKWKVDGVIQDTGIQESVTEQDKDSTYSLSSTLTMSSTEYLSHELYSCEITHKSLPSTLIKSFQRSEC | 11.8 | 50.2
4 | anti-TGFβ antibody ZTS-4155, canine IgGB (65), N434C (antibody) chain 1: EVQLVQSGAEVKKPGASVKVSCKTSGYTFITYWMNWVRQAPGAGLDWMGQIFPASGSTNYNEMFEGRVTLTADTSTSTAYMELSSLRAGDIAVYYCARGDGNYALDAMDYWGQGTLVTVSSASTTAPSVFPLAPSCGSTSGSTVALACLVSGYFPEPVTVSWNSGSLTSGVHTFPSVLQSSGLYSLSSMVTVPSSRWPSETFTCNVAHPASKTKVDKPVPKRENGRVPRPPDCPKCPAPEMLGGPSVFIFPPKPKDTLLIARTPEVTCVVVDLDPEDPEVQISWFVDGKQMQTAKTQPREEQFNGTYRVVSVLPIGHQDWLKGKQFTCKVNNKALPSPIERTISKARGQAHQPSVYVLPPSREELSKNTVSLTCLIKDFFPPDIDVEWQSNGQQEPESKYRTTPPQLDEDGSYFLYSKLSVDKSRWQRGDTFICAVMHEALHCHYTQESLSHSPGK chain 2: DIVMTQTPPSLSVSPRETASISCRASESVDSYGNSFMHWYLQKPGQSPQLLIYLASNLESGVSDRFSGSGSGTDFTLRISRVEANDTGVYYCQQNNEDPLTFGQGTKLEIKRNDAQPAVYLFQPSPDQLHTGSASVVCLLNSFYPKDINVKWKVDGVIQDTGIQESVTEQDKDSTYSLSSTLTMSSTEYLSHELYSCEITHKSLPSTLIKSFQRSEC |  | 270
5 | anti-TGFβ antibody ZTS-4155, canine IgGB (65), N434R (antibody) chain 1: EVQLVQSGAEVKKPGASVKVSCKTSGYTFITYWMNWVRQAPGAGLDWMGQIFPASGSTNYNEMFEGRVTLTADTSTSTAYMELSSLRAGDIAVYYCARGDGNYALDAMDYWGQGTLVTVSSASTTAPSVFPLAPSCGSTSGSTVALACLVSGYFPEPVTVSWNSGSLTSGVHTFPSVLQSSGLYSLSSMVTVPSSRWPSETFTCNVAHPASKTKVDKPVPKRENGRVPRPPDCPKCPAPEMLGGPSVFIFPPKPKDTLLIARTPEVTCVVVDLDPEDPEVQISWFVDGKQMQTAKTQPREEQFNGTYRVVSVLPIGHQDWLKGKQFTCKVNNKALPSPIERTISKARGQAHQPSVYVLPPSREELSKNTVSLTCLIKDFFPPDIDVEWQSNGQQEPESKYRTTPPQLDEDGSYFLYSKLSVDKSRWQRGDTFICAVMHEALHRHYTQESLSHSPGK chain 2: DIVMTQTPPSLSVSPRETASISCRASESVDSYGNSFMHWYLQKPGQSPQLLIYLASNLESGVSDRFSGSGSGTDFTLRISRVEANDTGVYYCQQNNEDPLTFGQGTKLEIKRNDAQPAVYLFQPSPDQLHTGSASVVCLLNSFYPKDINVKWKVDGVIQDTGIQESVTEQDKDSTYSLSSTLTMSSTEYLSHELYSCEITHKSLPSTLIKSFQRSEC | 2.7 | 285

The remaining lines, values ahead:

Row | Kd [1] [nM] | Kd [2] [nM] | Binder
6 | 13.6 | 6.19 | anti-TGFβ antibody ZTS-4155, canine IgGB (65), N434V (antibody) chain 1: EVQLVQSGAEVKKPGASVKVSCKTSGYTFITYWMNWVRQAPGAGLDWMGQIFPASGSTNYNEMFEGRVTLTADTSTSTAYMELSSLRAGDIAVYYCARGDGNYALDAMDYWGQGTLVTVSSASTTAPSVFPLAPSCGSTSGSTVALACLVSGYFPEPVTVSWNSGSLTSGVHTFPSVLQSSGLYSLSSMVTVPSSRWPSETFTCNVAHPASKTKVDKPVPKRENGRVPRPPDCPKCPAPEMLGGPSVFIFPPKPKDTLLIARTPEVTCVVVDLDPEDPEVQISWFVDGKQMQTAKTQPREEQFNGTYRVVSVLPIGHQDWLKGKQFTCKVNNKALPSPIERTISKARGQAHQPSVYVLPPSREELSKNTVSLTCLIKDFFPPDIDVEWQSNGQQEPESKYRTTPPQLDEDGSYFLYSKLSVDKSRWQRGDTFICAVMHEALHVHYTQESLSHSPGK chain 2: DIVMTQTPPSLSVSPRETASISCRASESVDSYGNSFMHWYLQKPGQSPQLLIYLASNLESGVSDRFSGSGSGTDFTLRISRVEANDTGVYYCQQNNEDPLTFGQGTKLEIKRNDAQPAVYLFQPSPDQLHTGSASVVCLLNSFYPKDINVKWKVDGVIQDTGIQESVTEQDKDSTYSLSSTLTMSSTEYLSHELYSCEITHKSLPSTLIKSFQRSEC
7 | 16.6 | 406 | anti-TGFβ antibody ZTS-4155, canine IgGB (65), N434T (antibody) chain 1: EVQLVQSGAEVKKPGASVKVSCKTSGYTFITYWMNWVRQAPGAGLDWMGQIFPASGSTNYNEMFEGRVTLTADTSTSTAYMELSSLRAGDIAVYYCARGDGNYALDAMDYWGQGTLVTVSSASTTAPSVFPLAPSCGSTSGSTVALACLVSGYFPEPVTVSWNSGSLTSGVHTFPSVLQSSGLYSLSSMVTVPSSRWPSETFTCNVAHPASKTKVDKPVPKRENGRVPRPPDCPKCPAPEMLGGPSVFIFPPKPKDTLLIARTPEVTCVVVDLDPEDPEVQISWFVDGKQMQTAKTQPREEQFNGTYRVVSVLPIGHQDWLKGKQFTCKVNNKALPSPIERTISKARGQAHQPSVYVLPPSREELSKNTVSLTCLIKDFFPPDIDVEWQSNGQQEPESKYRTTPPQLDEDGSYFLYSKLSVDKSRWQRGDTFICAVMHEALHTHYTQESLSHSPGK chain 2: DIVMTQTPPSLSVSPRETASISCRASESVDSYGNSFMHWYLQKPGQSPQLLIYLASNLESGVSDRFSGSGSGTDFTLRISRVEANDTGVYYCQQNNEDPLTFGQGTKLEIKRNDAQPAVYLFQPSPDQLHTGSASVVCLLNSFYPKDINVKWKVDGVIQDTGIQESVTEQDKDSTYSLSSTLTMSSTEYLSHELYSCEITHKSLPSTLIKSFQRSEC
8 | 2.11 | 162 | anti-TGFβ antibody ZTS-4155, canine IgGB (65), N434W (antibody) chain 1: EVQLVQSGAEVKKPGASVKVSCKTSGYTFITYWMNWVRQAPGAGLDWMGQIFPASGSTNYNEMFEGRVTLTADTSTSTAYMELSSLRAGDIAVYYCARGDGNYALDAMDYWGQGTLVTVSSASTTAPSVFPLAPSCGSTSGSTVALACLVSGYFPEPVTVSWNSGSLTSGVHTFPSVLQSSGLYSLSSMVTVPSSRWPSETFTCNVAHPASKTKVDKPVPKRENGRVPRPPDCPKCPAPEMLGGPSVFIFPPKPKDTLLIARTPEVTCVVVDLDPEDPEVQISWFVDGKQMQTAKTQPREEQFNGTYRVVSVLPIGHQDWLKGKQFTCKVNNKALPSPIERTISKARGQAHQPSVYVLPPSREELSKNTVSLTCLIKDFFPPDIDVEWQSNGQQEPESKYRTTPPQLDEDGSYFLYSKLSVDKSRWQRGDTFICAVMHEALHWHYTQESLSHSPGK chain 2: DIVMTQTPPSLSVSPRETASISCRASESVDSYGNSFMHWYLQKPGQSPQLLIYLASNLESGVSDRFSGSGSGTDFTLRISRVEANDTGVYYCQQNNEDPLTFGQGTKLEIKRNDAQPAVYLFQPSPDQLHTGSASVVCLLNSFYPKDINVKWKVDGVIQDTGIQESVTEQDKDSTYSLSSTLTMSSTEYLSHELYSCEITHKSLPSTLIKSFQRSEC

— patent US20260193334A1 (ZOETIS SERVICES, published 2026)
